The supplement of paper PMC10266784

B1: library; numbered along this chain (parent)
chain: MAAAAAAAAEQQSSNGPVKKSMREKAVERRSVNKEHNSNFKAGYIPIDEDRLHKTGLRGRKGNLAICVIILLFILAVINLIITLVIWAVIRIGPNGCDSMEFHESGLLRFKQVSDMGVIHPLYKSTVGGRRNENLVITGNNQPIVFQQGTTKLSVENNKTSITSDIGMQFFDPRTQNILFSTDYETHEFHLPSGVKSLNVQKASTERITSNATSDLNIKVDGRAIVRGNEGVFIMGKTIEFHMGGNMELKAENSIILNGSVMVSTTRLPSSSSGDQLGSGDWVRYKLCMCADGTLFKVQVTSQNMGCQISDNPCGNTH

Variants of: B1
Test: SGCB cell-surface expression functional score (HA stain, bin4 vs bin1, normalised to synonymous) (log10 ratio); higher = more cell-surface SGCB (functional)
Description: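 Deep mutational scan of full-length human SGCB (YFP-SGCB-HA, NNN codon sublibraries A-F) delivered by lentivirus at low MOI into ADG-HEK293 cells stably expressing SGCA, SGCD and SGCG. YFP-positive cells were stained for surface HA on unpermeabilized cells and FACS-sorted into bins. The functional score is log10(frequency in high bin 4 / frequency in low bin 1), normalised per chunk so that synonymous variants have mean 0 and SD 0.5. Scores are the median over codons and over duplicate biological replicates; scores below -0.5 are called non-functional. Scale: negative means deleterious.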

Variant | SGCB cell-surface expression functional score (log10)
MAAAAAAAAEQQSSNGPVKKSMREKAVERRSVNKEHNSNFKAGYIPIDEDRLHKTGIRGRKGNLAICVIILLFILAVINLIITLVIWAVIRIGPNGCDSMEFHESGLLRFKQVSDMGVIHPLYKSTVGGRRNENLVITGNNQPIVFQQGTTKLSVENNKTSITSDIGMQFFDPRTQNILFSTDYETHEFHLPSGVKSLNVQKASTERITSNATSDLNIKVDGRAIVRGNEGVFIMGKTIEFHMGGNMELKAENSIILNGSVMVSTTRLPSSSSGDQLGSGDWVRYKLCMCADGTLFKVQVTSQNMGCQISDNPCGNTH [L57I] | 0.49
MAAAAAAAAEQQSSNGPVKKSMREKAVERRSVNKEHNSNFKAGYIPIDEDRLHKTGNRGRKGNLAICVIILLFILAVINLIITLVIWAVIRIGPNGCDSMEFHESGLLRFKQVSDMGVIHPLYKSTVGGRRNENLVITGNNQPIVFQQGTTKLSVENNKTSITSDIGMQFFDPRTQNILFSTDYETHEFHLPSGVKSLNVQKASTERITSNATSDLNIKVDGRAIVRGNEGVFIMGKTIEFHMGGNMELKAENSIILNGSVMVSTTRLPSSSSGDQLGSGDWVRYKLCMCADGTLFKVQVTSQNMGCQISDNPCGNTH [L57N] | 0.02
MAAAAAAAAEQQSSNGPVKKSMREKAVERRSVNKEHNSNFKAGYIPIDEDRLHKTGKRGRKGNLAICVIILLFILAVINLIITLVIWAVIRIGPNGCDSMEFHESGLLRFKQVSDMGVIHPLYKSTVGGRRNENLVITGNNQPIVFQQGTTKLSVENNKTSITSDIGMQFFDPRTQNILFSTDYETHEFHLPSGVKSLNVQKASTERITSNATSDLNIKVDGRAIVRGNEGVFIMGKTIEFHMGGNMELKAENSIILNGSVMVSTTRLPSSSSGDQLGSGDWVRYKLCMCADGTLFKVQVTSQNMGCQISDNPCGNTH [L57K] | 0.32
MAAAAAAAAEQQSSNGPVKKSMREKAVERRSVNKEHNSNFKAGYIPIDEDRLHKTGPRGRKGNLAICVIILLFILAVINLIITLVIWAVIRIGPNGCDSMEFHESGLLRFKQVSDMGVIHPLYKSTVGGRRNENLVITGNNQPIVFQQGTTKLSVENNKTSITSDIGMQFFDPRTQNILFSTDYETHEFHLPSGVKSLNVQKASTERITSNATSDLNIKVDGRAIVRGNEGVFIMGKTIEFHMGGNMELKAENSIILNGSVMVSTTRLPSSSSGDQLGSGDWVRYKLCMCADGTLFKVQVTSQNMGCQISDNPCGNTH [L57P] | -0.03
MAAAAAAAAEQQSSNGPVKKSMREKAVERRSVNKEHNSNFKAGYIPIDEDRLHKTGSRGRKGNLAICVIILLFILAVINLIITLVIWAVIRIGPNGCDSMEFHESGLLRFKQVSDMGVIHPLYKSTVGGRRNENLVITGNNQPIVFQQGTTKLSVENNKTSITSDIGMQFFDPRTQNILFSTDYETHEFHLPSGVKSLNVQKASTERITSNATSDLNIKVDGRAIVRGNEGVFIMGKTIEFHMGGNMELKAENSIILNGSVMVSTTRLPSSSSGDQLGSGDWVRYKLCMCADGTLFKVQVTSQNMGCQISDNPCGNTH [L57S] | 0.11
MAAAAAAAAEQQSSNGPVKKSMREKAVERRSVNKEHNSNFKAGYIPIDEDRLHKTGQRGRKGNLAICVIILLFILAVINLIITLVIWAVIRIGPNGCDSMEFHESGLLRFKQVSDMGVIHPLYKSTVGGRRNENLVITGNNQPIVFQQGTTKLSVENNKTSITSDIGMQFFDPRTQNILFSTDYETHEFHLPSGVKSLNVQKASTERITSNATSDLNIKVDGRAIVRGNEGVFIMGKTIEFHMGGNMELKAENSIILNGSVMVSTTRLPSSSSGDQLGSGDWVRYKLCMCADGTLFKVQVTSQNMGCQISDNPCGNTH [L57Q] | -0.03
MAAAAAAAAEQQSSNGPVKKSMREKAVERRSVNKEHNSNFKAGYIPIDEDRLHKTGMRGRKGNLAICVIILLFILAVINLIITLVIWAVIRIGPNGCDSMEFHESGLLRFKQVSDMGVIHPLYKSTVGGRRNENLVITGNNQPIVFQQGTTKLSVENNKTSITSDIGMQFFDPRTQNILFSTDYETHEFHLPSGVKSLNVQKASTERITSNATSDLNIKVDGRAIVRGNEGVFIMGKTIEFHMGGNMELKAENSIILNGSVMVSTTRLPSSSSGDQLGSGDWVRYKLCMCADGTLFKVQVTSQNMGCQISDNPCGNTH [L57M] | 0.09
MAAAAAAAAEQQSSNGPVKKSMREKAVERRSVNKEHNSNFKAGYIPIDEDRLHKTGGRGRKGNLAICVIILLFILAVINLIITLVIWAVIRIGPNGCDSMEFHESGLLRFKQVSDMGVIHPLYKSTVGGRRNENLVITGNNQPIVFQQGTTKLSVENNKTSITSDIGMQFFDPRTQNILFSTDYETHEFHLPSGVKSLNVQKASTERITSNATSDLNIKVDGRAIVRGNEGVFIMGKTIEFHMGGNMELKAENSIILNGSVMVSTTRLPSSSSGDQLGSGDWVRYKLCMCADGTLFKVQVTSQNMGCQISDNPCGNTH [L57G] | 0.28
MAAAAAAAAEQQSSNGPVKKSMREKAVERRSVNKEHNSNFKAGYIPIDEDRLHKTGHRGRKGNLAICVIILLFILAVINLIITLVIWAVIRIGPNGCDSMEFHESGLLRFKQVSDMGVIHPLYKSTVGGRRNENLVITGNNQPIVFQQGTTKLSVENNKTSITSDIGMQFFDPRTQNILFSTDYETHEFHLPSGVKSLNVQKASTERITSNATSDLNIKVDGRAIVRGNEGVFIMGKTIEFHMGGNMELKAENSIILNGSVMVSTTRLPSSSSGDQLGSGDWVRYKLCMCADGTLFKVQVTSQNMGCQISDNPCGNTH [L57H] | -0.36
MAAAAAAAAEQQSSNGPVKKSMREKAVERRSVNKEHNSNFKAGYIPIDEDRLHKTGRRGRKGNLAICVIILLFILAVINLIITLVIWAVIRIGPNGCDSMEFHESGLLRFKQVSDMGVIHPLYKSTVGGRRNENLVITGNNQPIVFQQGTTKLSVENNKTSITSDIGMQFFDPRTQNILFSTDYETHEFHLPSGVKSLNVQKASTERITSNATSDLNIKVDGRAIVRGNEGVFIMGKTIEFHMGGNMELKAENSIILNGSVMVSTTRLPSSSSGDQLGSGDWVRYKLCMCADGTLFKVQVTSQNMGCQISDNPCGNTH [L57R] | 0.07
